Where a chain is given by its changes, count along the chain named.
T1: biotin-PDGF-bb (human), P01127
T1 chain: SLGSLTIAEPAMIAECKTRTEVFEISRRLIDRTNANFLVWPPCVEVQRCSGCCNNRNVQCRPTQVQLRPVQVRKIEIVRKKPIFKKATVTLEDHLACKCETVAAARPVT

B1: V-EET-3 (designed binder)
chain: GCMTPWFPFTINCKQDSDCLAGCVCGPNGFCG
B2: V-MCH-1 (designed binder)
chain: GCAGKSCKKWSSVHCDAGCFCQIGQQVVYIPGCV
B3: V-EET-1 (designed binder)
chain: GCTTPWVPHHIMCKQDSDCLAGCVCGPNGFCG
B4: V-EET-2 (designed binder)
chain: B1 chain with M3Q, F9H, T10Q, N12L
B5: V-AMP-1 (designed binder)
chain: VGECSQPWFINMCNMVDCCSQFGYCGKGPKYCG
B6: P-EET-6 (designed binder)
chain: GCFDDNPFIACKQDSDCLAGCVCWYDTWCG
modifications: not checked
B7: P-EET-2 (designed binder)
chain: GCSHWLQEMFGFCKQDSDCLAGCVCEISETCG
modifications: not checked

biological target: biotin-VEGF-A (8-109) (human); assay: SPR; […]; Biacore S200, […] (PBS with 0.05% Tween 20, pH 7.4); […]
Sequence (P15692 whole entry): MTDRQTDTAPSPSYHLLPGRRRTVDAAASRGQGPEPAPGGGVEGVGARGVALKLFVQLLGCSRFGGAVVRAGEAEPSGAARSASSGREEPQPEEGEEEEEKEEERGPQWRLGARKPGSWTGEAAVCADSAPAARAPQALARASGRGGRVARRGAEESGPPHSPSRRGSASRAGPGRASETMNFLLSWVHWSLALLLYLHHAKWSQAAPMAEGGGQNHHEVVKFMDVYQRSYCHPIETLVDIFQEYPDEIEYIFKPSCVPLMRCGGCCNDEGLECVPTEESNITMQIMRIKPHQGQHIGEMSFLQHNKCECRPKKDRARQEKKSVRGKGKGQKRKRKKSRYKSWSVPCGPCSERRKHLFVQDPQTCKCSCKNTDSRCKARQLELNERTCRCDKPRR

| Kd [µM] | Binder |
| --- | --- |
| > 1.5 | B1 |
| > 50 | B2 |
| > 20 | B3 |
| > 30 | B4 |
| > 3.6 | B5 |

Biological target: T1, biotin-PDGF-bb (human), P01127
Assay: as above

| Kd [µM] | Binder |
| --- | --- |
| > 6.7 | B6 |
| > 20 | B7 |
